Measurements published in paper PMC11117822.

Molecular target: poly-L-arginine hydrochloride
Assay: optical reflectometry; PARG layer adsorbed on silica in a stagnation point flow cell; HSA 5 mg L^-1 flowed over it at Q = 8.33 x 10^-3 cm^3 s^-1; 150 mM NaCl, pH 4.0; 298 K

plateau coverage: 0.1 mg m^−2
Substance: human serum albumin (from UniProt P02768 25-609)
